Assay results from US20240294622A1 (SUZHOU TRANSCENTA THERAPEUTICS, published 2024).

Tests used:
HGREM1-His (ACRO) [1] = molecular target: T1, HGREM1-His (ACRO) (human, UniProt O60565 25-184); test: blocking ELISA, Human Gremlin-1 binding to BMP7; column Percentage
T1 construct: Lys25-Asp184 of NP_037504 with C-terminal polyhistidine tag (ACRO GR1-H52H3); they are put here; also called hGREM1 (ACRO); human gremlin (ACRO)
T1 sequence: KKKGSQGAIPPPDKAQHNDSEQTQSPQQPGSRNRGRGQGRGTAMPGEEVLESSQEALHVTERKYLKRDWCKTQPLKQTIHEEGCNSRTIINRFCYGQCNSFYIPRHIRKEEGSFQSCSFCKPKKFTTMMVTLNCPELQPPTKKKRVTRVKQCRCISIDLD
Experimental: (§1) In addition, the ability of serial dilutions of antibodies provided herein to block Gremlin binding to human BMP2/4/7 was also examined via ELISA. Plates were coated with recombinant human BMP2/4/7 (0.5 μg/ml) overnight and then serial dilutions of antibodies were incubated with 1 μg/ml of human Gremlin-his modified for 1 h at RT before this complex was added to coated plates and allowed to incubate for an additional hour at RT. The plates were then washed and added with anti-his HRP (GenScript). Plates were then developed with a TMB solution and stopped by adding stop solution. The plates were read on a plate reader at 450 nm. […] The chimeric anti-gremlin 1 antibodies (69H5-chi) and chimeric anti-gremlin 1 antibodies (22F1-chi) also can inhibit the binding of gremlin to BMP2 and BMP4 (see, FIG. 3E and FIG. 3F). The chimeric anti-gremlin 1 antibodies (56C11-chi) can inhibit the binding of gremlin to BMP2 (see, FIG. 3E).

HGREM1-His (ACRO) [2] = molecular target: T1, HGREM1-His (ACRO); test: blocking ELISA, Human Gremlin-1 binding to BMP2; column Percentage
Experimental: as §1

HGREM1-His (ACRO) [3] = molecular target: T1, HGREM1-His (ACRO); test: blocking ELISA, Human Gremlin-1 binding to BMP4; column OD450
Experimental: as §1

HGREM1-His (ACRO) [4] = molecular target: T1, HGREM1-His (ACRO); test: blocking ELISA, Human Gremlin-1 binding to BMP4; column Percentage
Experimental: as §1

HGREM1-His (ACRO) [5] = molecular target: T1, HGREM1-His (ACRO); test: ELISA on coated Gremlin-his (column Gremlin)
Experimental: Binding affinities to hGREM1 and XM5 were also compared. Briefly, XM5-Fc or Gremlin-his […] was coated. 100 μl of block solution consisting of PBS+1% BSA+1% normal goat serum+0.5% Tween 20 (Sigma) was added to each well and incubated at room temperature for 2 hours. 4-fold serial antibody dilution from 2 μg/ml were added. Afterward the plates were washed three times with 200 ul of PBS+0.1% Tween20 followed by adding 100 μl/well 1:10000 Goat anti mouse IgG-HRP (abeam), and incubate for 1 hour at room temperature. They were then washed 3× with PBS+0.1% Tween20. Finally, 100 μl/well of TMB (InnoReagents) was added to each well and after 2 minutes add 50 ul of stop solution to each well. The plates were read on a Multiscan FC microplate reader (Thermo Scientific) at […]. The EC50 values were show in table below.

human COCO (R&D) = molecular target: T2, human COCO (R&D) (human, UniProt Q8N907 23-189, limits assumed); test: ELISA on coated human COCO (R&D, 0.5ug/ml), anti-mouse IgG-HRP
T2 sequence (looked up): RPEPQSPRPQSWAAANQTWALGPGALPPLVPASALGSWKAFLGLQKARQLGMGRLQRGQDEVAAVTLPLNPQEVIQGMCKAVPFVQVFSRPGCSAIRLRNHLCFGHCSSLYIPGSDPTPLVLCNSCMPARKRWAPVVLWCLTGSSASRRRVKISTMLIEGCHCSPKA
Experimental: (§2) In addition, the specificity of the binding of 14E3 and a benchmark antibody was assessed with ELISA. Briefly, clear polystyrene plates (BEAVER) were coated with 100 μl/well of a […] hGREM1 (ACRO), or human gremlin-2 (R&D), human COCO (R&D) and human DAN protein (R&D) in high pH coating buffer overnight at 4° C. Then the plates were washed once on an automatic plate washer using PBS+0.1% Tween 20 (Sigma). 100 μl of block solution consisting of PBS+1% BSA+1% normal goat serum+0.5% Tween 20 (Sigma) was added to each well and incubated at room temperature for 2 hours. Then 100 ul of antibodies in antibody dilution buffer containing PBS+1% BSA+1% normal goat serum+0.01% Tween 20 starting from 2 μg/ml and then 5 fold serial dilution were added to each well of the plate and incubated for 1 hours at room temperature. Afterward the plates were washed three times with 200 ul of PBS+0.1% Tween20 followed by adding 100 μl/well 1:10000 Goat anti mouse IgG-HRP (Abcam), and incubate for 1 hour at room temperature. They were then washed 3× with PBS+0.1% Tween20. Finally, 100 µl/well of TMB (Pierce) was added to each well and after 5 minutes add 50 ul of stop solution to each well. The plates were read on a Multiscan FC microplate reader (Thermo Scientific) at […].

HGREM1-His (ACRO) [6] = molecular target: T1, HGREM1-His (ACRO); test: ELISA on coated hGREM1 (Example 5: ACRO; sheet title: DAN Family,R&D,0.5ug/ml), anti-mouse IgG-HRP
Experimental: as §2

Row | Binder | IC50 (HGREM1-His (ACRO) [1]) [µg/mL] | IC50 (HGREM1-His (ACRO) [2]) [µg/mL] | IC50 (HGREM1-His (ACRO) [3]) [µg/mL] | IC50 (HGREM1-His (ACRO) [4]) [µg/mL] | EC50 (HGREM1-His (ACRO) [5]) [µg/mL] | binding result (human COCO (R&D)) | EC50 (read off the curve) (HGREM1-His (ACRO) [6]) [µg/mL]
1 | 36F5 (antibody, V domains shown, mouse hybridoma antibody; also called hybridoma 36F5) VH: QVQLQQSGAELARPGASVKLSCKASGYSFTSSGIGWVKQRSGQGLEWIGEIYPRSGNTYNNEKFKGKATLTADKSSSTVYMELRSLTSEDSAVYFCVREAYSHHYYAMDYWGQGTSVTVFS VL: DVLMTQTPLSLPVSLGGQASISCRSSQSLLHSNGNTYLEWYLQKPGQSPKLLIYKVSNRFSGVPDRLSGSGSGTDFTLKISRVEAEDLGVYYCFQGSHVPFTFGSGTKLEIN | 0.683 | 0.604 | 0.512 | 0.512 | 0.0147 |  | 
2 | 14E3 (antibody, V domains shown, mouse hybridoma antibody; also called hybridoma 14E3; anti-gremlin1 antibody 14E3) VH: QIQLVQSGPELKKPGETVKISCKTSGSTFTTYGMAWMKQAPGKGLTWMGWINTLSGEPTYADDFKGRFAFSLKTSANTAYLQINNLKNEDAATYFCAREPMDYWGQGTSVIVSS VL: not shown |  |  |  |  |  | no binding (tested: 1 ug/ml) | ~0.01
